The values that follow come from article PMC8126848 (Proceedings of the National Academy of Sciences of the …, 2021).

The experiment deals with soluble ectodomain of ICAM-1 (intercellular adhesion molecule-1), domains D1 to D5 (UniProt P05362 28-480). Description: cryo-EM structure.
soluble ectodomain of ICAM-1 (intercellular adhesion molecule-1), domains D1 to D5, sequence (P05362 28-480): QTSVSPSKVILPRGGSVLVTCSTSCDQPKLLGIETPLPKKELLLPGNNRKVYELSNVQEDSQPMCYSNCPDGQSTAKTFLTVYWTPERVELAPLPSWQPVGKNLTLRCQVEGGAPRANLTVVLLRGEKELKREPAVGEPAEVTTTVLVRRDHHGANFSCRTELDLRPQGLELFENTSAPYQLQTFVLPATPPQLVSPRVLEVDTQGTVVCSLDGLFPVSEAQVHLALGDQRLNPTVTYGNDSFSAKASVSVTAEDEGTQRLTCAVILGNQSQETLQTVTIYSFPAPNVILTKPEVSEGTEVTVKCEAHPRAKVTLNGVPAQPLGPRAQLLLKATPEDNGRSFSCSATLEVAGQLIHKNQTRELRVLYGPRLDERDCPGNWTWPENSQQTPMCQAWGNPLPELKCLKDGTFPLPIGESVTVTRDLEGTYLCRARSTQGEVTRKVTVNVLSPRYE

B1: rhinovirus 14 capsid protein VP2 (natural protein, rhinovirus 14 (strain 1059), UniProt P03303 70-331, looked up)
chain: SPNVEACGYSDRVQQITLGNSTITTQEAANAVVCYAEWPEYLPDVDASDVNKTSKPDTSVCRFYTLDSKTWTTGSKGWCWKLPDALKDMGVFGQNMFFHSLGRSGYTVHVQCNATKFHSGCLLVVVIPEHQLASHEGGNVSVKYTFTHPGERGIDLSSANEVGGPVKDVIYNMNGTLLGNLLIFPHQFINLRTNNTATIVIPYINSVPIDSMTRHNNVSLMVIPIAPLTVPTGATPSLPITVTIAPMCTEFSGIRSKSIVPQ
With B1, the binding result was “binds”.
